Laboratory results: article PMC4027190

Experiment: western blot (and ELISA for N38S) of culture media
Conditions: glycan lost; control: wild type

B1: matrix metalloproteinase-9 (MMP-9): mS38 (protein)
parent chain: MSLWQPLVLVLLVLGCCFAAPRQRQSTLVLFPGDLRTNLTDRQLAEEYLYRYGYTRVAEMRGESKSLGPALLLLQKQLSLPETGELDSATLKAMRTPRCGVPDLGRFQTFEGDLKWHHHNITYWIQNYSEDLPRAVIDDAFARAFALWSAVTPLTFTRVYSRDADIVIQFGVAEHGDGYPFDGKDGLLAHAFPPGPGIQGDAHFDDDELWSLGKGVVVPTRFGNADGAACHFPFIFEGRSYSACTTDGRSDGLPWCSTTANYDTDDRFGFCPSERLYTQDGNADGKPCQFPFIFQGQSYSACTTDGRSDGYRWCATTANYDRDKLFGFCPTRADSTVMGGNSAGELCVFPFTFLGKEYSTCTSEGRGDGRLWCATTSNFDSDKKWGFCPDQGYSLFLVAAHEFGHALGLDHSSVPEALMYPMYRFTEGPPLHKDDVNGIRHLYGPRPEPEPRPPTTTTPQPTAPPTVCPTGPPTVHPSERPTAGPTGPPSAGPTGPPTAGPSTATTVPLSPVDDACNVNIFDAIAEIGNQLYLFKDGKYWRFSEGRGSRPQGPFLIADKWPALPRKLDSVFEERLSKKLFFFSGRQVWVYTGASVLGPRRLDKLGLGADVAQVTGALRSGRGKMLLFSGRRLWRFDVKAQMVDPRSASEVDRMFPGVPLDTHDVFQYREKAYFCQDRFYWRVSSRSELNQVDQVGYVTYDILQCPED
expression_or_secretion: no change
